Read-outs that look alike come from different tables or passages of the source.
Target: T1, Apo REV-ERBβ LBD (Homo sapiens, UniProt Q14995)
T1 construct: The human REV-ERBβ LBD (residues 381 to 579) was previously cloned; 6xHis with 3C protease cleavage site (N, cleaved yes); made in house; host or cells: E. coli BL21(DE3)
T1 sequence (Q14995 381-579): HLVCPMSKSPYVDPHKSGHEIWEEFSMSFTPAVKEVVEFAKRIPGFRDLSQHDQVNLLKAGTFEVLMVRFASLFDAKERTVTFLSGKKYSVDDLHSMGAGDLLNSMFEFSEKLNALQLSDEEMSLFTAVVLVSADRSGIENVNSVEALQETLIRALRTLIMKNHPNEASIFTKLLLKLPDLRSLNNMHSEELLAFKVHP
Assay: ITC, NCoR RID constructs with apo REV-ERBβ LBD
Type: binding
Settings: WT RID; for Kd: LBD 150 μM (2 × 20 injections) into 15 μM RID, pH 7.4, 25°C, two nonsymmetric sites, microscopic K model
Method: Human REV-ERBβ LBD was expressed in BL21(DE3) Escherichia coli cells with an N-terminal hexahistidine (6xHis) tag separated by a 3C protease cleavage site. Expression was performed using auto-induction media: Cells were grown at 37°C for 5 hours, 30°C for 1 hour, and 18°C for 16 hours before harvesting by centrifugation. Pellets were resuspended in potassium phosphate lysis buffer [40 mM potassium phosphate (pH 7.4), 500 mM KCl, 15 mM imidazole, and 1 mM dithiothreitol (DTT)] supplemented with leupeptin, pepstatin A, lysozyme, and deoxyribonuclease (DNase) I and sonicated on ice. […] A 5-ml aliquot of 6xHis-tagged protein was purified by size exclusion chromatography using a Superdex 75 column equilibrated in time-resolved fluorescence energy transfer (TR-FRET) assay buffer [20 mM potassium phosphate (pH 7.4), 50 mM KCl, and 0.5 mM EDTA]; purified aliquots were stored at −80°C for TR-FRET assays. To cleave the 6xHis tag from the remaining protein, it was incubated overnight with 3C protease (generated in-house) via dialysis; then, protein was reloaded onto the HisTrap columns, and the flow-through was collected. Last, aggregates were removed by size exclusion chromatography using a Superdex 75 column and Hepes gel filtration buffer [20 mM Hepes (pH 7.4), 50 mM KCl, and 0.5 mM EDTA]. Greater than 95% purity was confirmed by SDS-PAGE. Protein was aliquoted and stored at −80°C.
ITC experiments were performed using a MicroCal iTC200. All experiments were solvent-matched and contained 0.1% DMSO (peptide vehicle) and 0.2% 0.2 M solution of NaOH (heme vehicle) final concentrations. NITPIC software ([37]) was used to calculate baselines and integrate curves and prepare experimental data for fitting in SEDPHAT, which was used to generate final binding affinity and thermodynamic parameter measurements ([38]).Final figures were exported to GUSSI for publication-quality figure preparation ([39]).
[…] REV-ERBβ LBD in the syringe was titrated into the RID in the sample cell as described above, with the exception that a total of 4 molar equivalents were titrated over 20 injections. […] For apo LBD into WT RID, data were fit to A + B ↔ AB + B ↔ BA + A ↔ BAB, with two nonsymmetric sites, microscopic K model in SEDPHAT. For apo LBD into ΔID2, data were fit to an A + B ↔ AB hetero-association model in SEDPHAT. For heme-bound LBD into WT RID, data were fit to an A + B ↔ AB hetero-association model in SEDPHAT.
NCoR RID constructs (including WT, ΔID1, ΔID2, and ΔID1ΔID2) were transformed into BL21(DE3) E. coli cells, which were grown in 2 liters of Terrific Broth media [yeast extract (24 g/liter), tryptone (12 g/liter), KH2PO4 ([…]), K2HPO4 ([…]), and glycerol (4 ml/liter)] at 37°C until OD600 reached 0.7 to 0.8. Expression was induced with 0.75 mM IPTG for 2 hours at 37°C before cells were harvested by centrifugation. Pellets were washed 1× with phosphate-buffered saline and stored at −80°C until purification. Pellets were resuspended on ice in Hepes lysis buffer [25 mM Hepes (pH 7.4), 150 mM NaCl, 2 M urea, and 15 mM imidazole] supplemented with 1 mM DTT, pepstatin A, leupeptin, lysozyme, DNase I, phenylmethylsulfonyl fluoride, and 0.1% Tween 20, and cell slurry was sonicated on ice. Lysed cells were centrifuged at 20,000g for 30 min at 4°C, and soluble lysate was filtered before IMAC purification using 2 × 5 ml HisTrap columns (GE Healthcare) affixed to an ÄKTA pure; elution buffer was 25 mM Hepes (pH 7.4), 150 mM NaCl, and 500 mM imidazole. Fractions were pooled; additional protease inhibitors were added, and protein was dialyzed against 25 mM Hepes (pH 7.0), 150 mM NaCl, and 1 mM DTT with Tobacco etch virus (TEV) protease to cleave the Trx-6xHis tag at 4°C overnight. Cleaved protein was reloaded on HisTrap columns and eluted with 50 mM bis-tris (pH 6.7), 150 mM NaCl, and 1 mM DTT. […]

B1: WT RID: mouse NCoR RID (residues 1942 to 2208 in the X50 splice variant) (protein, UniProt Q60974 1942-2208, looked up, fragment)
chain: TITAANFIDVIITRQIASDKDARERGSQSSDSSSSLSSHRYETASDAIEVISPASSPAPPQEKPQAYQPDMVKANQAENESTRQYEGPLHHYRSQQESPSPQQQPPLPPSSQSEGMGQVPRTHRLITLADHICQIITQDFARNQVPSQASTSTFQTSPSALSSTPVRTKTSSRYSPESQSQTVLHPRPGPRVSPENLVDKSRGSRPGKSPERSHIPSEPYEPISPPQGPAVHEKQDSMLLLSQRGVDPAEQRSDSRSPGSISYLPSF
modifications: X50 splice variant
  LBD:RID stoichiometry: two apo LBDs interact with one RID, most likely with positive cooperativity
95% CI, read-out: KD, Site 1
  Kd: 12 nM
95% CI, read-out: KD, Site 2
  Kd: 740 nM
Site 1, 25°C, 95% CI
  TΔS, Site 1: 2.5 kcal/mol
  ΔG, Site 1: -10.8 kcal/mol
  ΔH, Site 1: -8.3 kcal/mol
Site 2, 25°C, 95% CI
  TΔS, Site 2: 12 (95% CI: 11 to13) kcal/mol
  ΔG, Site 2: -8.4 kcal/mol
  ΔH, Site 2: 3.2 kcal/mol
